Data from US20050048627A1.

Molecular target: MMP-2 (UniProt P08253)
Test: cell-based or functional assay

Sequence of UniProt P08253 (P08253 110-660 limits assumed): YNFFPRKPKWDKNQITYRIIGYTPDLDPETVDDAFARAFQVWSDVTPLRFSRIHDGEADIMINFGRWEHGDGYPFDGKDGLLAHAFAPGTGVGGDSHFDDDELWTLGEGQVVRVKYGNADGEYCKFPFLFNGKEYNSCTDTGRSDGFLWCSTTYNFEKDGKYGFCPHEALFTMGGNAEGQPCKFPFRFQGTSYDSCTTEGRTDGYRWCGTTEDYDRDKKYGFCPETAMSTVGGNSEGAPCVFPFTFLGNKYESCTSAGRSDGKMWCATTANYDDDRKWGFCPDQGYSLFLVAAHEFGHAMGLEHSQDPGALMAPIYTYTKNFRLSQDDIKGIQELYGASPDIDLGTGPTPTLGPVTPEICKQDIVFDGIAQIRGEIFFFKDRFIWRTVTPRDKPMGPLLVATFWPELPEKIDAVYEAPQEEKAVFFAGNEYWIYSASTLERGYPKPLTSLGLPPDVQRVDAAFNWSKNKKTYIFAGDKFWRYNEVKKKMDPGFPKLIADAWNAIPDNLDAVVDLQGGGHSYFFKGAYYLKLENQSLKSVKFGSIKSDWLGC

## human serum albumin-TIMP2 fusion protein
  inhibition of MMP-2 activity (spectrofluorometric assay, 10 nM MMP-2, 10 µM MCA-Pro-Leu-Gly-Leu-Dap(Dnp)-Ala-Arg-NH2 substrate) at 7.5 µg/ml HSA-TIMP2: 37%
  inhibition of MMP-2 activity (spectrofluorometric assay, 10 nM MMP-2, 10 µM MCA-Pro-Leu-Gly-Leu-Dap(Dnp)-Ala-Arg-NH2 substrate) at 15 µg/ml HSA-TIMP2: 55%
